# Patent US20120288914A1, “CRYSTAL STRUCTURE OF GLYPHOSATE ACETYLTRANSFERASE (GLYAT) AND METHODS OF USE” (PIONEER HI BRED INTERNATIONAL INC., priority 2009, published 2012)
# B1: native GLYAT: naturally occurring glyphosate N-acetyltransferase from Bacillus licheniformis; SEQ ID NO: 3 (protein, listed as Bacillus licheniformis)
# chain: MIEVKPINAEDTYEIRHRILRPNQPLEACMYETDLLGGAFHLGGYYRGKLISIASFHKAEHSELEGEEQYQLRGMATLEGYREQKAGSTLIRHAEELLRKKGADLLWCNARTSVSGYYEKLGFSEQGEVYDIPPIGPHILMYKKLT
# modifications: ST401 GAT
# B2: R7: GLYAT variant resulting from seven rounds of DNA shuffling of a native GLYAT polypeptide; SEQ ID NO: 1 (protein)
# chain: MIEVKPINAEDTYELRHRILRPNQPIEACMFESDLLRGAFHLGGYYGGKLISIASFHQAEHSELQGQKQYQLRGMATLEGYREQKAGSSLIKHAEEILRKRGADLLWCNARTSASGYYKKLGFSEQGEVFDTPPVGPHILMYKRIT
# modifications: R7 GLYAT variant polypeptide
# B3: R11: GLYAT variant from the eleventh round of DNA shuffling; SEQ ID NO: 2 (protein)
# chain: MIEVKPINAEDTYDLRHRVLRPNQPIEACMFESDLTRSAFHLGGFYGGKLISVASFHQAEHSELQGKKQYQLRGVATLEGYREQKAGSSLVKHAEEILRKRGADMIWCNARTSASGYYRKLGFSEQGEVFDTPPVGPHILMYKRIT
# modifications: R11 GLYAT variant polypeptide
# Columns and labels:
# R7 GLYAT = test: inhibition of R7 GLYAT with respect to glyphosate; type: biochemical, B. licheniformis
# Source text: See PDB:2JDD for the atomic coordinates and structure factors of the X-ray crystal structure of the ternary complex of R7 GLYAT with AcCoA and 3PG and PDB:2JDC for the atomic coordinates and structure factors of the X-ray crystal structure of the binary complex of R7 GLYAT with oxidized CoA and sulfate bound in the glyphosate binding pocket. See Tables 11 and 12 for the atoms of the R7 GLYAT variant polypeptide and of AcCoA that contact 3PG (i.e., the substrate binding cavity) and the residues of R7 that contact AcCoA, respectively.
# [1] = substrate glyphosate; cited from earlier work
molecule,measurement,setting,value
O=C(O)[C@H](O)COP(=O)(O)O [3-phosphoglycerate],mode of inhibition,R7 GLYAT,competitive inhibitor
B1,Km,[1],1270 µM
B2,Km,[1],240 µM
B3,Km,[1],55 µM
